The values that follow come from article PMC11413795, “Milk-derived extracellular vesicles enable gut-to-tumor oral delivery of tumor-activated doxorubicin prodrugs” (Theranostics, 2024).

Data set [1] is described as follows: Biodistribution after oral administration, NIRF imaging of GI tract. The arrangement: species or system BALB/c mice. Particulars: mouse. The method, then: All animal experiments were performed following the International Guide for the Care and Use of Laboratory Animals and were approved by the Korea Institute of Science and Technology. 7-week-old BALB/c mice (n = 3 per each time point) were used to monitor the in vivo biodistribution of mEVs. […] Fluorescence signals in the GI tract were monitored by NIRF imaging. Following the assessment of GI tract distribution, all mice were anesthetized using 2.5% isoflurane gas and dissected to extract their major organs (liver, lung, spleen, heart, and kidney) along with the GI tract, and blood for PK analysis. PK analysis was performed by measuring the fluorescence signal of FDX and mEVs present in the blood at each time point (20 min, 40 min, 1 h, 3 h, 6 h, and 24 h).

Data set [2] is described as follows: Systemic toxicity after repeated oral administration. It is filed as in vivo, BALB/c mice. Particulars: 10 mg/kg FDX or equivalent, three-day intervals, n = 5. The method, then: To evaluate the therapeutic efficacy of FDX@mEVs, all controls and FDX@mEVs (PBS, mEVs, FDX, and FDX@mEVs; an equivalent dose of 10 mg/kg of FDX dispersed in 100 μL of PBS) were orally administered to CT26 tumor-bearing mice when the average tumor size reached approximately 50 - 70 mm^3. The CT26 tumor-bearing mice were modeled in the same manner as the previous method by inoculating 1.5 x 10^6 cells into the left flank of 7-week-old BALB/c mice (BALB/cAnNCrlOri). The six-repeated administration was conducted every three days, and tumor sizes and body weights were measured every two days. All subjects were sacrificed three days after the last administration, and blood, major organs, and tumor tissues were collected for the following analysis.
Systemic toxicity of FDX@mEVs was assessed by analyzing hematological parameters and histological assay of major organs. To assess liver damage by FDX@mEVs, AST, and ALT levels were analyzed. In addition, BUN and creatinine levels were also evaluated to confirm renal toxicity. Subsequently, all major organs were used for H&E staining to verify the histological damage of FDX@mEVs. H&E staining was performed according to the same protocol used in our previous study. Briefly, all sections were incubated in Hematoxylin solution for 5 min at RT. All incubated tissue sections were washed using tap water for 3 min. […]

Peptide text beside a SMILES is read from it. * marks the point of attachment. Doxorubicin(3'-N) = COc1cccc2c1C(=O)c1c(O)c3c(c(O)c1C2=O)C[C@@](O)(C(=O)CO)C[C@@H]3O[C@H]1C[C@H](N*)[C@H](O)[C@H](C)O1

For the molecule `COc1cccc2c1C(=O)c1c(O)c3c(c(O)c1C2=O)C[C@@](O)(C(=O)CO)C[C@@H]3O[C@H]1C[C@H](NC(=O)CNC(=O)[C@H](CCCNC(=N)N)NC(=O)[C@H](CCCNC(=N)N)NC(=O)[C@H](Cc2ccccc2)NC(C)=O)[C@H](O)[C@H](C)O1` [FDX, FRRG-DOX] (Ac-FRRG-{Doxorubicin(3'-N)}), the “in vivo clearance time after oral administration” value in data set [1] is not above 3 h. The “body weight during repeated oral administration compared to PBS group” value in data set [2] is on record as “no significant changes”.
